Laboratory results: the supplement of paper PMC9112550, “Optimization of the antimicrobial peptide Bac7 by deep mutational scanning” (BMC Biology, 2022)

system: Escherichia coli TOP10; assay: shrunken log2 fold change of peptide-encoding DNA abundance (4.5 h post-induction vs induction); higher = less antimicrobial activity (less host growth inhibition); details: time post-induction: 4.5 h; library: site-saturation at positions 5, 18, 19, 20
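Further: peptides expressed intracellularly from a pBAD plasmid library in pooled LB shake-flask culture, induced with 0.3% L-arabinose, DNA abundance read by NGS, three biological replicates, DESeq2 with apeglm shrinkage.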

| Sequence | shrunken log2 fold change |
| --- | --- |
| RRIRHRPPRLPRPRPRPKIKPRP | -0.601 |
| RRIRHRPPRLPRPRPRPKKIPRP | -0.129 |
| RRIRHRPPRLPRPRPRPKLQPRP | 0.0439 |
| RRIRHRPPRLPRPRPRPKMPPRP | -0.0334 |
| RRIRHRPPRLPRPRPRPKMRPRP | 0.312 |
| RRIRHRPPRLPRPRPRPKMTPRP | -0.519 |
| RRIRHRPPRLPRPRPRPKPDPRP | 0.0401 |
| RRIRHRPPRLPRPRPRPKQFPRP | -0.108 |
| RRIRHRPPRLPRPRPRPKRAPRP | 0.0906 |
| RRIRHRPPRLPRPRPRPKRCPRP | -0.0661 |
| RRIRHRPPRLPRPRPRPKSCPRP | -0.0344 |
| RRIRHRPPRLPRPRPRPKSLPRP | -0.0347 |
| RRIRHRPPRLPRPRPRPKWPPRP | 0.0116 |
| RRIRHRPPRLPRPRPRPKYKPRP | -0.679 |
| RRIRHRPPRLPRPRPRPKYLPRP | -0.0216 |
| RRIRHRPPRLPRPRPRPKYYPRP | 0.046 |
| RRIRHRPPRLPRPRPRPLAAPRP | 0.325 |
| RRIRHRPPRLPRPRPRPLAIPRP | -0.346 |
| RRIRHRPPRLPRPRPRPLCTPRP | -0.247 |
| RRIRHRPPRLPRPRPRPLDWPRP | 0.393 |
| RRIRHRPPRLPRPRPRPLEVPRP | -0.184 |
| RRIRHRPPRLPRPRPRPLFSPRP | -0.888 |
| RRIRHRPPRLPRPRPRPLGVPRP | -0.109 |
| RRIRHRPPRLPRPRPRPLHCPRP | -0.519 |
| RRIRHRPPRLPRPRPRPLIFPRP | -0.38 |

| Sequence | shrunken log2 fold change |
| --- | --- |
| RRIRHRPPRLPRPRPRPLIGPRP | -0.155 |
| RRIRHRPPRLPRPRPRPLIKPRP | -0.721 |
| RRIRHRPPRLPRPRPRPLIRPRP | -0.217 |
| RRIRHRPPRLPRPRPRPLKIPRP | -0.0842 |
| RRIRHRPPRLPRPRPRPLKTPRP | 0.0116 |
| RRIRHRPPRLPRPRPRPLLCPRP | -0.223 |
| RRIRHRPPRLPRPRPRPLLDPRP | -0.117 |
| RRIRHRPPRLPRPRPRPLLLPRP | -0.208 |
| RRIRHRPPRLPRPRPRPLMFPRP | -0.236 |
| RRIRHRPPRLPRPRPRPLMHPRP | -0.414 |
| RRIRHRPPRLPRPRPRPLMLPRP | -0.0972 |
| RRIRHRPPRLPRPRPRPLNFPRP | -0.0479 |
| RRIRHRPPRLPRPRPRPLNQPRP | -0.17 |
| RRIRHRPPRLPRPRPRPLNWPRP | 0.0279 |
| RRIRHRPPRLPRPRPRPLQEPRP | -0.331 |
| RRIRHRPPRLPRPRPRPLQRPRP | -0.187 |
| RRIRHRPPRLPRPRPRPLTRPRP | 0.0261 |
| RRIRHRPPRLPRPRPRPLVSPRP | 0.0121 |
| RRIRHRPPRLPRPRPRPLWAPRP | 0.222 |
| RRIRHRPPRLPRPRPRPLYGPRP | -0.214 |
| RRIRHRPPRLPRPRPRPMAFPRP | 0.166 |
| RRIRHRPPRLPRPRPRPMANPRP | -0.0536 |
| RRIRHRPPRLPRPRPRPMGMPRP | -0.254 |
| RRIRHRPPRLPRPRPRPMHSPRP | 0.0758 |
| RRIRHRPPRLPRPRPRPMHWPRP | -0.134 |

| Sequence | shrunken log2 fold change |
| --- | --- |
| RRIRHRPPRLPRPRPRPMIAPRP | -0.0185 |
| RRIRHRPPRLPRPRPRPMKHPRP | -0.0367 |
| RRIRHRPPRLPRPRPRPMKMPRP | 0.043 |
| RRIRHRPPRLPRPRPRPMLCPRP | -0.0124 |
| RRIRHRPPRLPRPRPRPMNVPRP | -0.0594 |
| RRIRHRPPRLPRPRPRPMPAPRP | 0.337 |
| RRIRHRPPRLPRPRPRPMPCPRP | -0.105 |
| RRIRHRPPRLPRPRPRPMQIPRP | 0.093 |
| RRIRHRPPRLPRPRPRPMQSPRP | -0.215 |
| RRIRHRPPRLPRPRPRPMSKPRP | -0.203 |
| RRIRHRPPRLPRPRPRPMSPPRP | 0.0565 |
| RRIRHRPPRLPRPRPRPMSTPRP | -0.12 |
| RRIRHRPPRLPRPRPRPMTKPRP | 0.0576 |
| RRIRHRPPRLPRPRPRPMVTPRP | -1.08 |
| RRIRHRPPRLPRPRPRPMVYPRP | -0.0125 |
| RRIRHRPPRLPRPRPRPMWEPRP | -0.0441 |
| RRIRHRPPRLPRPRPRPMYDPRP | 0.0149 |
| RRIRHRPPRLPRPRPRPMYEPRP | -0.0116 |
| RRIRHRPPRLPRPRPRPMYSPRP | -0.263 |
| RRIRHRPPRLPRPRPRPNAAPRP | 0.299 |
| RRIRHRPPRLPRPRPRPNAKPRP | -0.117 |
| RRIRHRPPRLPRPRPRPNCAPRP | 0.0721 |
| RRIRHRPPRLPRPRPRPNCGPRP | 0.00696 |
| RRIRHRPPRLPRPRPRPNCMPRP | -0.0153 |
| RRIRHRPPRLPRPRPRPNDNPRP | -1.03 |
